Measurements reported in article PMC3077903 (Molecular microbiology, 2011).

T1: MinD-D152A (E. coli, UniProt P0AEZ3 1-270, D152A)
T1 sequence (looked up): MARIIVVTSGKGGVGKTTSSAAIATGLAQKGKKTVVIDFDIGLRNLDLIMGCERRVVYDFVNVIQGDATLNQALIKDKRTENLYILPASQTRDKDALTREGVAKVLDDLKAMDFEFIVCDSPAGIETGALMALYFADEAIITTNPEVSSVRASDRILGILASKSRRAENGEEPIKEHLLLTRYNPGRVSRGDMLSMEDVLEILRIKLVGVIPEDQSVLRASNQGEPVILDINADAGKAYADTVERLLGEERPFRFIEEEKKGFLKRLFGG

T2: MinD (E. coli, UniProt P0AEZ3 1-270)
T2 sequence (looked up): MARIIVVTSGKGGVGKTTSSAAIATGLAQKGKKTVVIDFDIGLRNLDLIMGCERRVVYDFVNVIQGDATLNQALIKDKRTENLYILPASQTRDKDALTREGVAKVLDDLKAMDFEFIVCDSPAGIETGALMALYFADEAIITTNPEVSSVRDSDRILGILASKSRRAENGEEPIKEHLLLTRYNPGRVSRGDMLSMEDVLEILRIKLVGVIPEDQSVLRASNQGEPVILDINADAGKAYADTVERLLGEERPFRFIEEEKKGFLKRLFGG


Key:
SEC = target: the molecule itself; test: SEC
MinD-D152A = target: T1, MinD-D152A; test: two-hybrid
MinD = target: T2, MinD; test: two-hybrid

Row | percent of the MinE-MinD β-galactosidase activity (MinD-D152A) | β-galactosidase activity (MinD-D152A) | percent of the MinE-MinD β-galactosidase activity (MinD) | β-galactosidase activity (MinD) | Binder | stoichiometry N (SEC)
1 |  |  |  |  | MinDΔ10-D40A (domain or fragment, E. coli, UniProt P0AEZ3 1-260, looked up) MARIIVVTSGKGGVGKTTSSAAIATGLAQKGKKTVVIDFAIGLRNLDLIMGCERRVVYDFVNVIQGDATLNQALIKDKRTENLYILPASQTRDKDALTREGVAKVLDDLKAMDFEFIVCDSPAGIETGALMALYFADEAIITTNPEVSSVRDSDRILGILASKSRRAENGEEPIKEHLLLTRYNPGRVSRGDMLSMEDVLEILRIKLVGVIPEDQSVLRASNQGEPVILDINADAGKAYADTVERLLGEERPFRFIEEEK | 2
2 | 44% | 145 units of β-galactosidase activity | 100% |  | MinE (full length) (natural protein, E. coli, UniProt P0A734 1-88, looked up) MALLDFFLSRKKNTANIAKERLQIIVAERRRSDAEPHYLPQLRKDILEVICKYVQIDPEMVTVQLEQKDGDISILELNVTLPEAEELK | 
3 | 8% | 28 units of β-galactosidase activity | 120% | 398 units of β-galactosidase activity | MALLDFFLSRKKNTANIAKERLQIIVAERRR (domain or fragment, E. coli, UniProt P0A734 1-31, looked up) [MinE^1-31] | 
